These results are taken from paper PMC4472604.

Holding throughout (assay): radioligand
What all share (conditions): modification not given

Assay [1] deals with T1, 6TM/E11 6TM/E11 splice variant (Mus musculus), P42866.
T1 chain: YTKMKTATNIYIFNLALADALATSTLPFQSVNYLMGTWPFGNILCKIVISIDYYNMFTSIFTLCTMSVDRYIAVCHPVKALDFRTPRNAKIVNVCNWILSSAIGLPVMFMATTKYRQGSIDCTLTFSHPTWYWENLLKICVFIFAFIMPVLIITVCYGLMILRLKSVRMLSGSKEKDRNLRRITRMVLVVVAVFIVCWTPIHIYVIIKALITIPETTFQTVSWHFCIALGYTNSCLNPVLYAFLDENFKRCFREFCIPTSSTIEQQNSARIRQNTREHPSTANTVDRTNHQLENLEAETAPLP

The target of assay [2] is T2, KOR (Mus musculus), P33534.
T2 chain: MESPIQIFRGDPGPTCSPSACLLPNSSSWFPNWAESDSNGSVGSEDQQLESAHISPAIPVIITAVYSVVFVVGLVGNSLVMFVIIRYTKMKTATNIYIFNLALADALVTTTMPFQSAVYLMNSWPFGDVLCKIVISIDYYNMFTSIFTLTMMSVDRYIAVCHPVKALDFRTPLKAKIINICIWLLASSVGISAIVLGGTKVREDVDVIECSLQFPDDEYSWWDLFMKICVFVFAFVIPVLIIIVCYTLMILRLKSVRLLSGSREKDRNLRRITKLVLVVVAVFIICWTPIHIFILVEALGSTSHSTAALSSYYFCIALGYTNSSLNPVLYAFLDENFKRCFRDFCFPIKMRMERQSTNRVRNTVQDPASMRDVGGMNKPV

Assay [3] has as its target MOR (Mus musculus), P42866.
The target of assay [4] is T3, DOR (Mus musculus), P32300.
T3 chain: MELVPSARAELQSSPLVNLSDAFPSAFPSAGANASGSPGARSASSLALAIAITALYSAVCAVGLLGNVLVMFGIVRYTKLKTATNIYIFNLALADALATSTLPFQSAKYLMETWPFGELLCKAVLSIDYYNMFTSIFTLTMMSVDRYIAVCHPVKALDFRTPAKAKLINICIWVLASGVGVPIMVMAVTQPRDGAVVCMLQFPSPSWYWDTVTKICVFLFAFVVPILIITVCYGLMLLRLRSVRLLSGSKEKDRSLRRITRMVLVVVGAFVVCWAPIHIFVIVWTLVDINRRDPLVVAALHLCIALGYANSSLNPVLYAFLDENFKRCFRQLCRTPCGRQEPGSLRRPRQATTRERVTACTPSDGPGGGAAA

Bounds are passed on as bounds.

MOR (Mus musculus), P42866, sequence (P42866 whole entry): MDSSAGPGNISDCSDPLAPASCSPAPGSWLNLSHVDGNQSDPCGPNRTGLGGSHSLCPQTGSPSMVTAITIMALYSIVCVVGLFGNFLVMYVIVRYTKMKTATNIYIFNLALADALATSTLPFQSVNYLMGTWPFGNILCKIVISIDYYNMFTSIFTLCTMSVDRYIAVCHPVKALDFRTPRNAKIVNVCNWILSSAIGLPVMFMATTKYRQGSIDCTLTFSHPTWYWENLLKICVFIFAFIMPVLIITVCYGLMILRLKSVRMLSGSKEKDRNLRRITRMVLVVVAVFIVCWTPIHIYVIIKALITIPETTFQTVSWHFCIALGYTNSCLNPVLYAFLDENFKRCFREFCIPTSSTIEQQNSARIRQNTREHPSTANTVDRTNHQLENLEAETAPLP

Usually Ki stands for the equilibrium dissociation constant of an inhibitor or competing ligand from its target. Regarding YAFEIIG [peptide 1], the Ki in assay [1], in assay [2] and in assay [3] was greater than 1 µM throughout.

Turning to YAFEVVG [[D-Ala2]deltorphin II], the Ki in assay [1], in assay [2] and in assay [3] was greater than 1 µM in each case.

As a reminder, the Kd is the free concentration of one partner at which half of the binding sites on the other are occupied at equilibrium, for simple one-to-one binding. Take YAFEIIG [[125I]-3 (125I-GATE3-8)]: in assay [4], the Kd stood at 0.00011 µM.
